Results on one molecule are retold here after patent CN1905899A (dated 2007).

This test deals with T1, EphA2 on cells (MDA-MB-231, MCF-10A, A549, MCF-7 EphA2 transfectants, prostate cancer tissue) (human, UniProt P29317 24-976).
T1 construct: whole, on cells; The other cells are human cell lines; also called EphA2受体
Description: immunofluorescence staining of cells.

T1 sequence (P29317 24-976): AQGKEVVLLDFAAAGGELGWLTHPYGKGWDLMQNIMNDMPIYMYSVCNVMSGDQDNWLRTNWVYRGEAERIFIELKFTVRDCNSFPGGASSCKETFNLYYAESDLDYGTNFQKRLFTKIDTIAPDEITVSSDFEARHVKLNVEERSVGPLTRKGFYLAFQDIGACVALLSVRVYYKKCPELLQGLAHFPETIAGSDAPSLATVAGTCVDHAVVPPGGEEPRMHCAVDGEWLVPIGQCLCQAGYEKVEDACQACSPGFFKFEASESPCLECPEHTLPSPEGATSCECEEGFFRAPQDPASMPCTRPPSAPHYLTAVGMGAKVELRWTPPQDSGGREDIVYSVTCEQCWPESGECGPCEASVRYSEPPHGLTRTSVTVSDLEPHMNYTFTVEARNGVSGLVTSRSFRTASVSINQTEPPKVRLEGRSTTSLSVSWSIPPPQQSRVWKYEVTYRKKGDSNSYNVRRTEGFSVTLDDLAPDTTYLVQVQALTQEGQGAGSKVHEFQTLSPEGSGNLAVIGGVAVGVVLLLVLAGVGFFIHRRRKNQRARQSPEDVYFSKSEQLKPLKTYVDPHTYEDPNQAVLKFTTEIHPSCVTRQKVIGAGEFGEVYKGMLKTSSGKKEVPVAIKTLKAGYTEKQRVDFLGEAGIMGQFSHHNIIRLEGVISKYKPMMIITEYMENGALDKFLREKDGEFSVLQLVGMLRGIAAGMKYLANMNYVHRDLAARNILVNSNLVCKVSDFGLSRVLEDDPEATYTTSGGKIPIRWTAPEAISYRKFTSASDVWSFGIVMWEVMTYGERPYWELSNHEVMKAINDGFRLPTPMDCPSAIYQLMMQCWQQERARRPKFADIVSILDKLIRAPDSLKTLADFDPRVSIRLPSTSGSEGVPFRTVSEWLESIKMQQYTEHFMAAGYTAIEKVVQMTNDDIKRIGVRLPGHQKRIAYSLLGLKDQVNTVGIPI

B1: EA2 anti-EphA2 monoclonal antibody (hybridoma strain EA2.31, ATCC PTA-4380) (antibody, V domains shown)
VH: DVKLVESGGGLVKPGGSLKLSCAASGFTFSSYTMSWVRQTPEKRLEWVATISSGGTYTYYPDSVKGRFTISRDNAKNTLYLQMSSLKSEDTAMYYCTREAIFTYWGQGTLVTVSA
VL: DIKMTQSPSSMYASLGERVTITCKASQDINNYLSWFQQKPGKSPKTLIYRANRVDGVPSRFSGSGSGQDYSLTISSLEYEDMGIYYCLKYDEFPYTFGGGTKLEIK
notes: Mouse hybridoma monoclonal
B1: the binding result is recorded as “binds”.
